{
  "source": "paper PMC6090015",
  "about": "“Identification and characterization of a novel β-D-galactosidase that releases pyruvylated galactose” (Scientific Reports, 2018)",
  "key": {"ORF1119 (PvGal-ase)": {"biological_target": "T1, ORF1119 (PvGal-ase) (Bacillus sp. HMA207, UniProt Z9IVQ1LJN5, E163A)", "T1 construct": "full length 469 aa, no signal peptide; pET-32b, N-terminal His5 tag, E. coli BL21(DE3)CodonPlus delta-lacZ, Ni-purified", "assay": "X-ray crystal structure, […] Å", "format": "binding", "settings": "co-crystallised with pNP-β-D-PvGal, pNP lost during crystal growth; active site; phosphate-citrate pH 5.2"}, "[1]": {"system": "T2, CC1(C(=O)O)OC[C@H]2O[C@@H](Oc3ccc([N+](=O)[O-])cc3)[C@H](O)[C@@H](O)[C@H]2O1", "T2 construct": "full length 469 aa, no signal peptide; pET-32b, N-terminal His5 tag, E. coli BL21(DE3)CodonPlus delta-lacZ, Ni-purified", "assay": "discontinuous pNP release, A405", "format": "biochemical, Bacillus sp. HMA207", "settings": "50 mM HEPES-NaOH pH 7.5, 37 °C", "text": "(§1) discontinuous pNP release, A405 on ORF1119 (PvGal-ase)"}, "[2]": {"system": "T3, C[C@H]1O[C@@H](Oc2ccc([N+](=O)[O-])cc2)[C@H](O)[C@@H](O)[C@H]1O", "T3 construct": "full length 469 aa, no signal peptide; pET-32b, N-terminal His5 tag, E. coli BL21(DE3)CodonPlus delta-lacZ, Ni-purified", "assay": "discontinuous pNP release, A405", "format": "biochemical, Bacillus sp. HMA207", "settings": "50 mM HEPES-NaOH pH 7.5", "text": "as §1"}, "[3]": {"system": "T4, O=[N+]([O-])c1ccc(O[C@@H]2O[C@H](CO)[C@@H](O)[C@H](O)[C@H]2O)cc1", "T4 construct": "full length 469 aa, no signal peptide; pET-32b, N-terminal His5 tag, E. coli BL21(DE3)CodonPlus delta-lacZ, Ni-purified", "assay": "discontinuous pNP release, A405", "format": "biochemical, Bacillus sp. HMA207", "settings": "50 mM HEPES-NaOH pH 7.5", "text": "as §1"}, "[4]": {"system": "T5, O=[N+]([O-])c1ccc(O[C@@H]2O[C@H](CO)[C@H](O)[C@H](O)[C@H]2O)cc1", "T5 construct": "full length 469 aa, no signal peptide; pET-32b, N-terminal His5 tag, E. coli BL21(DE3)CodonPlus delta-lacZ, Ni-purified", "assay": "discontinuous pNP release, A405", "format": "biochemical, Bacillus sp. HMA207", "settings": "50 mM HEPES-NaOH pH 7.5", "text": "as §1"}},
  "data": [
    {"compound": "C[C@@]1(C(=O)O)OC[C@H]2OC(O)[C@H](O)[C@@H](O)[C@H]2O1", "note": "(stereo partly shown) [PvGal]", "values": [
      {"measurement": "X-ray crystal structure, 2.45 Å", "setting": "ORF1119 (PvGal-ase)", "value": "In the complex structure, clear electron density is observed for the PvGal ligand"}
    ]},
    {"compound": "ORF1119 (PvGal-ase) (Bacillus sp. HMA207)", "values": [
      {"measurement": "Km", "setting": "[1]; 37.0 °C", "value": "810 ± 140", "unit": "µM"},
      {"measurement": "kcat", "setting": "[1]; 37.0 °C", "value": "5.2 ± 0.2", "unit": "s⁻¹"},
      {"measurement": "kcat/Km", "setting": "[1]; 37.0 °C", "value": 6300, "unit": "M⁻¹ s⁻¹"},
      {"measurement": "Km", "setting": "[2]", "value": "1900 ± 100", "unit": "µM"},
      {"measurement": "kcat", "setting": "[2]", "value": "1.6 ± 0.02", "unit": "s⁻¹"},
      {"measurement": "kcat/Km", "setting": "[2]", "value": 830, "unit": "M⁻¹ s⁻¹"},
      {"measurement": "Km", "setting": "[3]", "value": "7400 ± 400", "unit": "µM"},
      {"measurement": "kcat", "setting": "[3]", "value": "0.10 ± 0.002", "unit": "s⁻¹"},
      {"measurement": "kcat/Km", "setting": "[3]", "value": 14, "unit": "M⁻¹ s⁻¹"},
      {"measurement": "Km", "setting": "[4]", "value": "3300 ± 400", "unit": "µM"},
      {"measurement": "kcat", "setting": "[4]", "value": "0.20 ± 0.005", "unit": "s⁻¹"},
      {"measurement": "kcat/Km", "setting": "[4]", "value": 60, "unit": "M⁻¹ s⁻¹"}
    ]},
    {"compound": "ORF1119 (PvGal-ase) (Bacillus sp. HMA207; K434A)", "values": [
      {"measurement": "Km", "setting": "[1]", "value": "730 ± 120", "unit": "µM"},
      {"measurement": "kcat", "setting": "[1]", "value": "8.8 ± 0.2", "unit": "s⁻¹"},
      {"measurement": "kcat/Km", "setting": "[1]", "value": 12000, "unit": "M⁻¹ s⁻¹"}
    ]},
    {"compound": "ORF1119 (PvGal-ase) (Bacillus sp. HMA207; N430A)", "values": [
      {"measurement": "Km", "setting": "[1]", "value": "900 ± 160", "unit": "µM"},
      {"measurement": "kcat", "setting": "[1]", "value": "7.0 ± 0.2", "unit": "s⁻¹"},
      {"measurement": "kcat/Km", "setting": "[1]", "value": 7700, "unit": "M⁻¹ s⁻¹"}
    ]},
    {"compound": "ORF1119 (PvGal-ase) (Bacillus sp. HMA207; N430Y)", "values": [
      {"measurement": "Km", "setting": "[1]", "value": "370 ± 80", "unit": "µM"},
      {"measurement": "kcat", "setting": "[1]", "value": "7.7 ± 0.2", "unit": "s⁻¹"},
      {"measurement": "kcat/Km", "setting": "[1]", "value": 21000, "unit": "M⁻¹ s⁻¹"}
    ]},
    {"compound": "ORF1119 (PvGal-ase) (Bacillus sp. HMA207; S427A)", "values": [
      {"measurement": "Km", "setting": "[1]", "value": "1920 ± 450", "unit": "µM"},
      {"measurement": "kcat", "setting": "[1]", "value": "4.4 ± 0.3", "unit": "s⁻¹"},
      {"measurement": "kcat/Km", "setting": "[1]", "value": 2300, "unit": "M⁻¹ s⁻¹"}
    ]},
    {"compound": "ORF1119 (PvGal-ase) (Bacillus sp. HMA207; S427E)", "values": [
      {"measurement": "Km", "setting": "[2]", "value": "470 ± 60", "unit": "µM"},
      {"measurement": "kcat", "setting": "[2]", "value": "0.91 ± 0.02", "unit": "s⁻¹"},
      {"measurement": "kcat/Km", "setting": "[2]", "value": 2000, "unit": "M⁻¹ s⁻¹"},
      {"measurement": "Km", "setting": "[3]", "value": "460 ± 90", "unit": "µM"},
      {"measurement": "kcat", "setting": "[3]", "value": "0.05 ± 0.001", "unit": "s⁻¹"},
      {"measurement": "kcat/Km", "setting": "[3]", "value": 98, "unit": "M⁻¹ s⁻¹"},
      {"measurement": "Km", "setting": "[4]", "value": "890 ± 90", "unit": "µM"},
      {"measurement": "kcat", "setting": "[4]", "value": "0.13 ± 0.002", "unit": "s⁻¹"},
      {"measurement": "kcat/Km", "setting": "[4]", "value": 149, "unit": "M⁻¹ s⁻¹"}
    ]},
    {"compound": "ORF1119 (PvGal-ase) (Bacillus sp. HMA207; Y436A)", "values": [
      {"measurement": "Km", "setting": "[1]", "value": "800 ± 180", "unit": "µM"},
      {"measurement": "kcat", "setting": "[1]", "value": "0.68 ± 0.03", "unit": "s⁻¹"},
      {"measurement": "kcat/Km", "setting": "[1]", "value": 860, "unit": "M⁻¹ s⁻¹"}
    ]},
    {"compound": "ORF1119 (PvGal-ase) (Bacillus sp. HMA207; Y436F)", "values": [
      {"measurement": "Km", "setting": "[1]", "value": "530 ± 90", "unit": "µM"},
      {"measurement": "kcat", "setting": "[1]", "value": "6.5 ± 0.2", "unit": "s⁻¹"},
      {"measurement": "kcat/Km", "setting": "[1]", "value": 12000, "unit": "M⁻¹ s⁻¹"}
    ]}
  ]
}
